Results: US20100316634A1 (published 2010)

Experiments:
[1] = target: T1, recombinant human interleukin 5 (IL-5) (human, UniProt P05113 20-134, 125I label (Bolton-Hunter reagent) in the receptor binding inhibition and colony lift assays); test: optical biosensor
T1 construct: also called human IL-5; hIL-5

[2] = target: T1, recombinant human interleukin 5 (IL-5); test: receptor binding inhibition, 125I-IL-5 on Drosophila membranes with the IL-5R alpha chain
Protocol: Membrane extracts of Drosophila S2 cells expressing the […] of the human IL-5 Receptor (IL-5R) were used to measure the effect of antibody on IL-5 binding to receptor. To prepare the membranes, 10⁹ cells were pelleted at 1000×g at 4° C. for 10 min. The cell pellet was frozen in a dry ice/ethanol bath for 15 min. The pellet was thawed, resuspended in 10 ml PBS at 4° C. and pelleted at 1000×g for 10 min. The cell pellet was washed 2× in PBS and resuspended in 13.5 ml Hypotonic buffer (10 mM Tris pH 7.5, 3 mM MgCl₂, 1 mM dithiothreitol, 1 mM phenylmethylsulfonyl fluoride, 1 uM leupeptin, 1 uM pepstatin A) and incubated on ice for 5 min. The cell suspension was homogenized in a 15 ml Dounce homogenizer and brought to a final concentration of 0.25 M sucrose with a solution of 2.5 M sucrose. Cell debris was removed by a 15 min centrifugation at 1000×g. Cell membranes were pelleted at 100,000×g at 4° C. for 90 min and resuspended in 50 ml of 10 mM Tris pH 7.5, 3 mM MgCl₂, 250 mM sucrose, and stored at −70° C.
Assays with Drosophila membranes containing receptor were performed in MultiscreenGV plates (Millipore Corp., Bedford, Mass.) using Drosophila tissue culture medium M3 (Lindquist et al., Drosophila Inf. Serv., 58: 163 (1982)) containing 25 mM HEPES buffer pH 7.2 and 0.1% BSA (Binding Buffer). Wells were pre-blocked with 0.1 ml binding buffer. […] Filters were dried and counted.

Kd [1]: ~0.09 nM
IC50 [2]: ~7.5 mg/L
B1: recombinant Fab of mAb 2B6 with C-terminal hexa-His on the heavy chain (Fab, V domains shown)
VH: QVQLKESGPGLVAPSQSLSITCTVSGFSLTSYSVHWVRQPPGKGLEWLGVIWASGGTDYNSALMSRLSISKDNSKSQVFLKLNSLQTDDTAMYYCARDPPSSLLRLDYWGQGTTLTVSS
VL: DIVMTQSPSSLSVSAGEKVTMSCKSSQSLLNSGNQKNYLAWYQQKPGQPPKLLIYGASTRESGVPDRFTGSGSGTDFTLSISSVQAEDLAVYYCQNVHSFPFTFGSGTELEIK
notes: Expressed in E. coli from pMKFabGene3H after removal of gene III; N-terminal residues may be set by the PCR primers; also called Fab fragment from 2B6; 2B6 Fab; not shown: murine gamma 1 constant part of the Fd (CH1 to hinge); murine kappa constant region
